How the values were obtained:
[1] = target: IGF-II/cation-independent mannose-6-phosphate receptor (Homo sapiens, UniProt P11717); conditions: Sakano et al. 1991; cited from earlier work
IGF-I receptor = IGF-I receptor (Homo sapiens, UniProt P08069); conditions: Sakano et al. 1991; cited from earlier work
insulin receptor = insulin receptor (Homo sapiens, UniProt P06213); conditions: Sakano et al. 1991; cited from earlier work
cell proliferation = conditions: Sakano et al. 1991; cited from earlier work
IGFBP-3 = IGFBP-3 (Homo sapiens, UniProt P17936); conditions: Bach et al. 1993; cited from earlier work
[2] = Evaluation of blood lipid level (1), nonfasting SD rats; type: in vivo; conditions: plasma; for total glyceride concentration 6 hours after administration, compared to negative control: IGF-I 50 μg/kg s.c., anti-RBP-3 pAb #35 20 mg/head i.p.; for total glyceride concentration 6 hours after administration, compared to negative control / total cholesterol concentration 24 hours after administration, compared to negative control: [Leu27, Leu43]rIGF-II 1,000 μg/kg s.c.
Protocol: [Leu27, Leu43]rIGF-II (1,000 μg/kg) was administered, subcutaneously, to a group of nonfasting SD rats (n=3, 8 weeks old, male, average weight: 300 g, purchased from Charles River Japan).
Anti-RBP-3 pAb #35 (20 mg/head) was administered, intraperitoneally, to another group of SD rats.
As a negative control, physiological saline (500 μl/head) was administered, subcutaneously, and as a positive control group, IGF-I (50 μg/kg, 200 μg/kg) was administered, subcutaneously.
About 500 μl of blood was sequentially collected into EDTA-coated glass tubes from the caudal vein. Thirty minutes after collection, the blood was centrifuged (3,500 rpm×12 mm 25° C.), and plasma supernatant was recovered and stored at −80° C. until assayed. The total cholesterol and total triglyceride concentrations of the plasma were measured in accordance with a “Hitachi 715 model” automatic analyzer using the enzyme method of “Autocera CH02 and TG2” (each, manufactured by Daiichi Pure Chemicals Co., Ltd.).

[3] = adult humans, intravenous injection, 100 μg/kg; Guler et al. 1987; cited from earlier work
[4] = target: T1, rat IGFBP-3 (RBP-3 E. coli) (Rattus norvegicus, UniProt P15473); experiment: Solid-phase binding of HRP-IGF-II to immobilized IGFBP-3, competitive inhibition; conditions: for inhibitory activity against the binding of IGF-II to IGFBP-3 (RBP-3 E. coli): final concentration of each compound 100 μg/ml, compared to the other test compounds of Table 1
T1 construct: made in house; host or cells: Escherichia coli (periplasm)
Protocol: A 96-well microtiter plate manufactured by Costar Corp.; 50 mM sodium phosphate buffer (pH 6.5) as a basic buffer for immuobilization; basic buffer supplemented with 0.03% Tween 20, basic buffer supplementee with 1% BSA and basic buffer supplemented with 0.25% BSA an 0.03% Tween 20 were used in the washing, blocking and binding steps, respectively. After each reaction, wells were washed twice with 400 μl/well of buffer. Horseradish peroxidase-labeled IGF-II (hereinafter “HRP-IGF-II”) was prepared using a commercially available kit (PIERCE Chemichal Company).
To the microtiter plate, RBP-3 E. coli (150 ng/ml) was added in an amount of 50 μl/well and allowed to stand overnight at 4° C. for immobilization. After blocking, 50 μl/well of HRP-IGF-II (final concentration diluted 12,000-fold) was added at 25° C. for 2 hours in the presence or absence of a test compound. Test compounds at various concentrations were added to each well in a total volume of 50 μl.
In the final step, a solution of 2,2′-azino-bis(3-ethylbenzthiazoline-6-sulfonic acid) (hereinafter “ABTS”; Kirkegaard & Perry Laboratories) was added to each well (100 μl/well) and allowed to stand at room temperature. The absorbance (O.D.) at 405 nm was measured on a plate reader (“VMAX™”, Molecular Devices).
The absorbance in the absence of a test compound is designated “B0”, and in the presence of a test compound is designated as “B”. The absorbance in the absence of both a test compound and using a non-immobilized well (a well not containing RBP-3 E. coli) is designated as nonspecific bound (NSB). The percent binding of labeled IGF-II to immobilized IGFBP-3 in the presence of a test compound is calculated from the following equation: […]
The binding reactions for each of the test compounds, was performed triplicate. The average value is plotted and the SD value is indicated with a bar (refer to FIG. 8).
Each compound was dissolved or suspended in basic buffer containing 5% methanol at a final concentration of 1 mg/ml. The resulting solution or suspension was diluted with the reaction buffer 5-fold or to a final concentration of 200 μg/ml. The final concentration of each compound at the time of measurement was 100 μg/ml.
The percent binding of IGF-II to IGFBP-3 (RBP-3 E. coli) in the presence of a test compound was calculated using the following formula:
“percent total bound (100(%))−percent actual bound (%)”=percent inhibitory activity (%) of the test specimen.
Measurements for each of the test compounds were performed twice, and the average inhibitory activity was determined.

[5] = target: T2, human placental IGF-I receptor (Homo sapiens, UniProt P08069); experiment: IGF-I receptor radioreceptor binding assay with 125I-IGF-I
T2 construct: human placental IGF-I receptor; from tissue; host or cells: human placenta
Protocol: (§1) The [Leu27, Leu43]rIGF-II derivative described in Example 8, was characterized for its binding affinity to human placental IGF-I receptor and human placental insulin receptor using a radioreceptor assay (Le Bon, T. R., et al., J. Biol. Chem., 261, 7685 (1986); Fujita-Yamaguchi, Y., et al., J. Biol. Chem., 258, 5045 (1983)).
(§2) In the first step, ^125I-IGF (or ^125I-insulin) (Amersham International plc) in an amount of 2×10^4 cpm was incubated with various amounts of the IGF receptor or the insulin receptor, to determine an amount of the receptor to which 50% of ^125I-IGF (or ^125I-insulin) binds.
(§3) [Leu27, Leu43]rIGF-II was added at various concentrations to aliquots of the mixture containing the determined amount of the receptor and ^125I-IGF (or ^125I-insulin) (2×10^4 cpm). The final volume of the reaction mix was brought to […] using a 50 mM Tris-HCl buffer (pH 7.4) containing 0.1% BSA and 0.075% Triton X-100, and allowed to incubate overnight at 4° C. […] The reaction mixture was centrifuged (3000 rpm×30 min, 4° C.), the supernatant decanted, and the cpm value for the pellet was measured by gamma counting. […]
(§4) The cpm value in the absence of a receptor is designated as nonspecific bound (NSB). […] The percent binding to a receptor is calculated from the following equation: […]

[6] = target: T3, human placental insulin receptor (Homo sapiens, UniProt P06213); experiment: Insulin receptor radioreceptor binding assay with 125I-insulin
T3 construct: human placental insulin receptor; from tissue; host or cells: human placenta
Protocol: as §1, §2, §3, §4

T1 sequence (P15473 28-292): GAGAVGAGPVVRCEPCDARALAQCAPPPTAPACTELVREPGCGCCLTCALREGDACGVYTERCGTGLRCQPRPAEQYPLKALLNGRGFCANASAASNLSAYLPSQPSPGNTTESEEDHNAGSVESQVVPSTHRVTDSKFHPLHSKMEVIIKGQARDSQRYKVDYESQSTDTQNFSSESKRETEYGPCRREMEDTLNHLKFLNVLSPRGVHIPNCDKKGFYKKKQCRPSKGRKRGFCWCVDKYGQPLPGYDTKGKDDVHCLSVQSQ
Chain of IGFBP-3 (P17936 28-291, species assumed): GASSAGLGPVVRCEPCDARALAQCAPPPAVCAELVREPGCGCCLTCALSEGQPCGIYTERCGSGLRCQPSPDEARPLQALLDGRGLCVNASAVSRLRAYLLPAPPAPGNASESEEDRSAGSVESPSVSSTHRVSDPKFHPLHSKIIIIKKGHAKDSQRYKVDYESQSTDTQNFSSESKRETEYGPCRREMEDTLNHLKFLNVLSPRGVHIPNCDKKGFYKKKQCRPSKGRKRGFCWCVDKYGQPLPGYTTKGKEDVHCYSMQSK
Chain of IGF-II/cation-independent mannose-6-phosphate receptor (P11717 41-2491): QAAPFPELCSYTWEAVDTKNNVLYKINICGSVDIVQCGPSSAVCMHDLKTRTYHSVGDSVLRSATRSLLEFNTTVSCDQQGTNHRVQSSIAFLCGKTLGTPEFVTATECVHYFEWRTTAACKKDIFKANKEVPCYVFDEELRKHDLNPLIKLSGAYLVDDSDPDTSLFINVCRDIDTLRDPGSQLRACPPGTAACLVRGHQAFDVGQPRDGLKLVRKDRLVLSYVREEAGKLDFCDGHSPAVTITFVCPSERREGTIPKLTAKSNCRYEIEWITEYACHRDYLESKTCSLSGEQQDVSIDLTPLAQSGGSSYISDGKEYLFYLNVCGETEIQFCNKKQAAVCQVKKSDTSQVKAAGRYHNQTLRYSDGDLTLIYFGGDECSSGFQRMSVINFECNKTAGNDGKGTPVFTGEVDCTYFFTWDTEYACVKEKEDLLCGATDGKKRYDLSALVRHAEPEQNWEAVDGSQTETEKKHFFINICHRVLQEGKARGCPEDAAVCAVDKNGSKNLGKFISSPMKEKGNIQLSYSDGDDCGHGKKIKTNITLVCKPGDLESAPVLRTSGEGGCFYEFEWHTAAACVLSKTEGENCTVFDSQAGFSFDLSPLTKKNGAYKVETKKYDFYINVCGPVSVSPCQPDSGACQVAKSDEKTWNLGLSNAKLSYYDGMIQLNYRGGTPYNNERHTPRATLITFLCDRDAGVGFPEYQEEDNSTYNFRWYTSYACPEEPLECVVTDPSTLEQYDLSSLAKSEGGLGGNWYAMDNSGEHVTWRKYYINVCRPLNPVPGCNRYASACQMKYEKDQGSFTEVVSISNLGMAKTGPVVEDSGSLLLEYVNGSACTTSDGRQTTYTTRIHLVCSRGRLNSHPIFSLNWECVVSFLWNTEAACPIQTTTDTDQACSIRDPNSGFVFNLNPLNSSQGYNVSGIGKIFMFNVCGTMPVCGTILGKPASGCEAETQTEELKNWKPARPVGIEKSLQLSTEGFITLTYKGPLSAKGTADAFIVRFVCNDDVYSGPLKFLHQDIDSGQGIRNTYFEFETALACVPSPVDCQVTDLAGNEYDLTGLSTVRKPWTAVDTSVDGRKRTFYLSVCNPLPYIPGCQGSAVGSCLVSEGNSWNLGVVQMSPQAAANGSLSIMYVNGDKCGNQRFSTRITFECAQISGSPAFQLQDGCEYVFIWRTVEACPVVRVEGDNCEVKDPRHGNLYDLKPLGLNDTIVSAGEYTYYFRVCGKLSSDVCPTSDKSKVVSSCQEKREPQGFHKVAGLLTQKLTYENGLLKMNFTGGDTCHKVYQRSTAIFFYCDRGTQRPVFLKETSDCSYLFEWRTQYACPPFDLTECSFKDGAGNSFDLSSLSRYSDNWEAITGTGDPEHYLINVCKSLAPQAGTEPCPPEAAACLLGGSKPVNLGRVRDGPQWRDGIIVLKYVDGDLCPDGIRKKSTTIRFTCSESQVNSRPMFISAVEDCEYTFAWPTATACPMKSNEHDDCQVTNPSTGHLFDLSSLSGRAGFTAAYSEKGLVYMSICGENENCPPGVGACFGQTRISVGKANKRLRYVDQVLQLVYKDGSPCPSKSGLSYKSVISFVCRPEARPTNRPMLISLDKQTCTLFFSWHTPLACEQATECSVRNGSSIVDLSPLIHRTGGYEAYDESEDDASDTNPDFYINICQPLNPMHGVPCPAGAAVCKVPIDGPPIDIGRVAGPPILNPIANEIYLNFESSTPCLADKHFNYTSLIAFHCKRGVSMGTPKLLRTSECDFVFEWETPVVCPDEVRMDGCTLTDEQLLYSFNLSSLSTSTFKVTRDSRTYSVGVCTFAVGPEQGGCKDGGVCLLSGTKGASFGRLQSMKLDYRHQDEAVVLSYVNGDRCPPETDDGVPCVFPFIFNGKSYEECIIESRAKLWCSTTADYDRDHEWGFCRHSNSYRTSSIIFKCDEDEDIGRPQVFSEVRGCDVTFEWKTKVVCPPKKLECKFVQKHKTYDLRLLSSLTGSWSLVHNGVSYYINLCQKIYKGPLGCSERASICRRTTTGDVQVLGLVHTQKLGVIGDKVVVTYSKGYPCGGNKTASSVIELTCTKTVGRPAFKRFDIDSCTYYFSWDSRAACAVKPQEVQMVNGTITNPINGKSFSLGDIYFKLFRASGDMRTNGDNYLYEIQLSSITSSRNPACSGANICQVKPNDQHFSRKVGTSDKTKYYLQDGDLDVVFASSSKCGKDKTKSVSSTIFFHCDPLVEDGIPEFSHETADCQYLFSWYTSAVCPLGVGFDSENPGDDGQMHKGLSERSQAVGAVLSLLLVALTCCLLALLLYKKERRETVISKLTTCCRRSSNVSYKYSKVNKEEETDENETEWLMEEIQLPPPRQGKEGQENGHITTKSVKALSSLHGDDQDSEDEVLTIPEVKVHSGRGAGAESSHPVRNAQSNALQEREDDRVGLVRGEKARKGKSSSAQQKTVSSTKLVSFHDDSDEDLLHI

For “[Leu 27] rIGF-II: human IGF-II derivative with a single amino acid substitution (Leu at position 27), from the literature”, the “binding to the IGF-II/cation-independent mannose-6-phosphate receptor” value [1] is given as “bind”, the “binding to the IGF-I receptor” value (IGF-I receptor) is given as “almost no binding” and the “binding to the insulin receptor” value (insulin receptor) is given as “almost no binding”. For the same compound, the “effect on cell proliferation” value (cell proliferation) was “significantly lowered effect” and the “binding to IGFBP-3 compared to wild type” value (IGFBP-3) was “almost similar to the wild type”.

With “IGF-I: Human IGF-I purchased from GroPep Pty. Ltd.; positive control” the “total glyceride concentration 6 hours after administration, compared to negative control” value [2] was “significantly decreased”, the “total cholesterol concentration 6 hours after administration, compared to negative control” value ([2]; IGF-I 200 μg/kg s.c.) was “significantly decreased” and the “total cholesterol concentration 24 hours after administration, compared to negative control” value ([2]; IGF-I 200 μg/kg s.c.) was “significantly decreased”. The blood glucose levels [3] was “lowering of blood glucose levels” and the “time of lowest blood glucose level after injection” value [3] was 20 min.

For `O=c1oc2c(O)c(O)cc3c(=O)oc4c(O)c(O)cc1c4c23` [Compound 27, Ellagic acid], the “inhibitory activity against the binding of IGF-II to IGFBP-3 (RBP-3 E. coli)” value (“inhibitory activity against the binding” below) [4] was “potent inhibitory activity”.

For “[Leu 43] rIGF-II: human IGF-II derivative with a single amino acid substitution (Leu at position 43), from the literature”, the “binding to the IGF-II/cation-independent mannose-6-phosphate receptor” value [1] is listed as “bind”, the “binding to the IGF-I receptor” value (IGF-I receptor) is listed as “almost no binding” and the “binding to the insulin receptor” value (insulin receptor) is listed as “almost no binding”. The “effect on cell proliferation” value (cell proliferation) was “significantly lowered effect” and the “binding to IGFBP-3 compared to wild type” value (IGFBP-3) was “almost similar to the wild type”.

For Heparin [Compound 31], the “inhibitory activity against the binding” value [4] was “potent inhibitory activity”.

For “[Leu27, Leu43]rIGF-II: human IGF-II derivative; tyrosine at residue 27 and valine at residue 43 each replaced with leucine”, the “affinity for IGFBP-3” value [4] was “has affinity for IGFBP-3”, the “inhibition of the binding of IGF (labeled IGF-II) and immobilized IGFBP-3” value ([4]; procedure of Example 10) was “at concentrations similar to those seen for IGF-II” and the “affinity for / binding to the IGF-I receptor” value [5] was “little or no binding”. For the same compound, the “affinity for the IGF-I receptor, as % of that for IGF-I” value [5] was 1 to 2%, the “affinity for / binding to the insulin receptor” value [6] was “little or no binding” and the “affinity for the insulin receptor, as % of that for insulin” value [6] was 1 to 2%. For the same compound, the “total glyceride concentration 6 hours after administration, compared to negative control” value [2] was “tendency toward lowering” and the “total cholesterol concentration 24 hours after administration, compared to negative control” value ([2]; IGF-I 200 μg/kg s.c.) was “significant decrease”.

In the case of `CC[C@@]1(O)C[C@H](O[C@H]2C[C@H](N(C)C)[C@H](O[C@H]3C[C@H](O)[C@H](O[C@H]4CCC(=O)[C@H](C)O4)[C@H](C)O3)[C@H](C)O2)c2c(cc3c(c2O)C(=O)c2c(O)cccc2C3=O)[C@H]1C(=O)OC` [Compound 29, Aclacinomycin A], the “inhibitory activity against the binding” value [4] was “potent inhibitory activity”.
